Measurements as given in article PMC5138618.

Legend:
Experiment in all cases: ELISA; ELISA-like multiwell assay: wells coated overnight with 100 ng/well recombinant human integrin heterodimer in 100 mM sodium carbonate pH 9.5; blocked with FCS-containing or FCS-free blocker; purified CagL (2.5, 5, 10, 20 ng/well; 10 ng for the comparison of mutants) incubated 3 h, washed; bound CagL detected with anti-CagL antiserum AK271; values relative to wild type CagL set to 100% after background subtraction
[1] = target: recombinant human integrin αvβ6 (human) (UniProt P06756)
recombinant human integrin αvβ6 (human), sequence (P06756 31-1048, chain 1 of 2): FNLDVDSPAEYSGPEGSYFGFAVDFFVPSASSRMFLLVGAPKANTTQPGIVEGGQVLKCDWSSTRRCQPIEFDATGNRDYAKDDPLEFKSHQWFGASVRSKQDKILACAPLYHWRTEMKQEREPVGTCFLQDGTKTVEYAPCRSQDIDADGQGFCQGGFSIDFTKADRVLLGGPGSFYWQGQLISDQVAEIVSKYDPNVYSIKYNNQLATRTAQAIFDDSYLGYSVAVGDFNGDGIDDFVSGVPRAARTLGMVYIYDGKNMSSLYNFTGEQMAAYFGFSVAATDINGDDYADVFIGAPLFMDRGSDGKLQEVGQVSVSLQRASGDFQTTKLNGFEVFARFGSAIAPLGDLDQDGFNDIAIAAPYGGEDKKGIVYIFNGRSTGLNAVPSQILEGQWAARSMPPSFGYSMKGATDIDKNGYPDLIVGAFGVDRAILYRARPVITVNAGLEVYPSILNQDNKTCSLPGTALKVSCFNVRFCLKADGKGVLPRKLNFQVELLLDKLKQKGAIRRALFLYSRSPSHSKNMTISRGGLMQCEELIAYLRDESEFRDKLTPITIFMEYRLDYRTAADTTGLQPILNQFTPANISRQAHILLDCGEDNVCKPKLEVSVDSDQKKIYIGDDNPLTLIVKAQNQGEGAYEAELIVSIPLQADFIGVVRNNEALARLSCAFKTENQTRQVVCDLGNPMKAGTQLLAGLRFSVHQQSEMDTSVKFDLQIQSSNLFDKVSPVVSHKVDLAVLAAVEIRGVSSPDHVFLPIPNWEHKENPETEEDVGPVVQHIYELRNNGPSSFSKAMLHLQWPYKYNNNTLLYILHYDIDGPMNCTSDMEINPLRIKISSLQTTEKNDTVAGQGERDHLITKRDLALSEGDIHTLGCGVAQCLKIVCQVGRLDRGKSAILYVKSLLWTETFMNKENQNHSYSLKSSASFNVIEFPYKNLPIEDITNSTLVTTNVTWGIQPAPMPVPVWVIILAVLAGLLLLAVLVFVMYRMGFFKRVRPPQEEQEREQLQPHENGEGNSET
recombinant human integrin αvβ6 (human), sequence (P18564 22-709, chain 2 of 2, further chain): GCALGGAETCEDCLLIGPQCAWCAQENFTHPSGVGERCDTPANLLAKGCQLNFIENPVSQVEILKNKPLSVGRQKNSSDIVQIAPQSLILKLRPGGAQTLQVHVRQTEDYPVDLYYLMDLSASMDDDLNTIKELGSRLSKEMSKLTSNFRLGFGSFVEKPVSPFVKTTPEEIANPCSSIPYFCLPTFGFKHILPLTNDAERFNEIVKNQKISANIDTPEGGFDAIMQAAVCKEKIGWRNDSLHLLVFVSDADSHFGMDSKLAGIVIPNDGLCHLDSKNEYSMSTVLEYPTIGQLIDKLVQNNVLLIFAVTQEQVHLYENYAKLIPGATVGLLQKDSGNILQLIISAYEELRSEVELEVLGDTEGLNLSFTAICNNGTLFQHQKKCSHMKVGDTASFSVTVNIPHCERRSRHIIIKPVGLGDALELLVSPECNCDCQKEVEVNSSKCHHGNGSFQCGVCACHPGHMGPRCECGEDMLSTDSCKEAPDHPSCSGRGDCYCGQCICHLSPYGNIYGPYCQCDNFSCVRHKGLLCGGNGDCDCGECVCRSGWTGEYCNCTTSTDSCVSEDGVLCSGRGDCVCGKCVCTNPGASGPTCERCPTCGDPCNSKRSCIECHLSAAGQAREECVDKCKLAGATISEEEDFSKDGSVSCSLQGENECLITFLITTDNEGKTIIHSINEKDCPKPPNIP

[2] = target: recombinant human integrin αvβ5 (human) (UniProt P06756)
recombinant human integrin αvβ5 (human), sequence (P06756 31-1048, chain 1 of 2): as the sequence (P06756 31-1048, chain 1 of 2) above
recombinant human integrin αvβ5 (human), sequence (P18084 24-719, chain 2 of 2, further chain): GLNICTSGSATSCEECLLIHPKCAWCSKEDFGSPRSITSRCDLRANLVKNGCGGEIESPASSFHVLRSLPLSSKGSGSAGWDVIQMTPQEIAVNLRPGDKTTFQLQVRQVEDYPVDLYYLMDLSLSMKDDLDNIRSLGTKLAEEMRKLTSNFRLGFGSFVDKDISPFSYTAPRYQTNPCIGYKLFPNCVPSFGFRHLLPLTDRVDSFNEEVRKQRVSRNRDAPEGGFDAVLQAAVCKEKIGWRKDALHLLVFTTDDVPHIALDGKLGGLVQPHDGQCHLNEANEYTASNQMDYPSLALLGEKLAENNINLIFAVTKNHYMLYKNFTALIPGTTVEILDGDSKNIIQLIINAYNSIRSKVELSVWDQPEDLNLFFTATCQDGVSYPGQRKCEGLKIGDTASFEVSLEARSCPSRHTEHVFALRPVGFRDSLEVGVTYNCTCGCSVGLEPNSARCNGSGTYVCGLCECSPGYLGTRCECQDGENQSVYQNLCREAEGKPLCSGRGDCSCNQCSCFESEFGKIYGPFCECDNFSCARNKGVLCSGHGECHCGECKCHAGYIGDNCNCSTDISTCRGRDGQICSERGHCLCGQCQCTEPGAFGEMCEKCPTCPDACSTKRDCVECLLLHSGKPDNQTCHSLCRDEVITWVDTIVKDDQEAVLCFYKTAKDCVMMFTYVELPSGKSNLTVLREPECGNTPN

[3] = target: recombinant human integrin α5β1 (human) (UniProt P08648)
recombinant human integrin α5β1 (human), sequence (P08648 42-1049, chain 1 of 2): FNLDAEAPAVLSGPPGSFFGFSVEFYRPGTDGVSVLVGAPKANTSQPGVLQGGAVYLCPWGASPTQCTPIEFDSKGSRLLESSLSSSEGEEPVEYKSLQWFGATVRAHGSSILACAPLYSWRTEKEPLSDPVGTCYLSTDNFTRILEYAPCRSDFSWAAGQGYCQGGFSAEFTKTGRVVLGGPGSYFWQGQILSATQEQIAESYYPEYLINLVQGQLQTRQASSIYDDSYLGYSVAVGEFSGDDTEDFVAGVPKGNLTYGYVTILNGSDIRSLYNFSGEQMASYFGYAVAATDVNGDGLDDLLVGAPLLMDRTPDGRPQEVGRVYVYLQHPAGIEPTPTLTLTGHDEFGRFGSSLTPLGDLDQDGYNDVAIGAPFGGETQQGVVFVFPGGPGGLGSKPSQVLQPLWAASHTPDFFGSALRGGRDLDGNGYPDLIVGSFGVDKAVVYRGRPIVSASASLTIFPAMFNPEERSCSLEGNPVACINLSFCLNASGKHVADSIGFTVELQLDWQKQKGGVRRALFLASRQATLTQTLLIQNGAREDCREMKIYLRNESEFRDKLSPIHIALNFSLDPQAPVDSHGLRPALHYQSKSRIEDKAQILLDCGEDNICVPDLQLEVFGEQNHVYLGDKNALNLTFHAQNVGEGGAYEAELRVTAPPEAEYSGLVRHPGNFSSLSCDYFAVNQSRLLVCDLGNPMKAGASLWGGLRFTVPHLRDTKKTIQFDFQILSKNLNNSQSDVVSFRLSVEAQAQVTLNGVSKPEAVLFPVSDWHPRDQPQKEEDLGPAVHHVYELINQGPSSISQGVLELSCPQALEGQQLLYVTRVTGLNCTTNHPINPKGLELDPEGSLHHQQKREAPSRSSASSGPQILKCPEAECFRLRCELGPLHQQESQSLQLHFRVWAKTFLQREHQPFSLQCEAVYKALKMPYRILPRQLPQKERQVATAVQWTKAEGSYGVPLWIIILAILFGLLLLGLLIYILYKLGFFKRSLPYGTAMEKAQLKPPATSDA
recombinant human integrin α5β1 (human), sequence (P05556 21-728, chain 2 of 2, further chain): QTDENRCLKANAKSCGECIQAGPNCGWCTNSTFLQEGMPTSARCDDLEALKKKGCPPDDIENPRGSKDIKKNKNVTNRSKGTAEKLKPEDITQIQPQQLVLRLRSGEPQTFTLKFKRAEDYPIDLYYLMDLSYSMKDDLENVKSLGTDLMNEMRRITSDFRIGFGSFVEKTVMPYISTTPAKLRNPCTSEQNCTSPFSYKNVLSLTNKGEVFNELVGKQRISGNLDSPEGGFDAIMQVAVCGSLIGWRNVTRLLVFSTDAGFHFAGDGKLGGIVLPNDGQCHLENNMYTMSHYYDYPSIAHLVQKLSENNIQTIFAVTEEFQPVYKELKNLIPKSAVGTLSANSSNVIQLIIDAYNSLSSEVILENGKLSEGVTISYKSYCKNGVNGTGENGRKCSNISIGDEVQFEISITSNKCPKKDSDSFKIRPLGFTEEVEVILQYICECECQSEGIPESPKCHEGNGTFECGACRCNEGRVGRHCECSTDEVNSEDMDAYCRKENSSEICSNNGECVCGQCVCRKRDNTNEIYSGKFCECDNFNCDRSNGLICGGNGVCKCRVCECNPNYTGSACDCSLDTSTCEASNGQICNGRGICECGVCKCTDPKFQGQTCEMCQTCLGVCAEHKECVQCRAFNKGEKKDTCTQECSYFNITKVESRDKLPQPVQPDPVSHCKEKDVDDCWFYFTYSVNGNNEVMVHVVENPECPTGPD

B1: CagL^ΔRGDΔTASLI double motif deletion, recombinant (natural protein)
chain: EDITSGLKQLDSTYQETNQQVLKNLDEIFSTTSPSANNEMGEEDALNIKKAAIALLALLKANFEANELFFISEDVIFKTYMSSPELLLTYMKINPLDQNTAEQQCGISDKVLVLYCEGKLKIEQEKQNIRERLETSLKAYQSNIGGTASQTLVESLKNKNFIKGIRKLMLAHNKVFLNYLEELDALERSLEQSKRQYLQERQSSKIIVK
- binding in percent of wild type CagL [1]: < 36%
- binding in percent of wild type CagL [2]: < 36%
- binding in percent of wild type CagL [3]: < 36%

B2: CagL^ΔRGD motif variant, recombinant (natural protein)
chain: EDITSGLKQLDSTYQETNQQVLKNLDEIFSTTSPSANNEMGEEDALNIKKAAIALLALLKANFEANELFFISEDVIFKTYMSSPELLLTYMKINPLDQNTAEQQCGISDKVLVLYCEGKLKIEQEKQNIRERLETSLKAYQSNIGGTASLITASQTLVESLKNKNFIKGIRKLMLAHNKVFLNYLEELDALERSLEQSKRQYLQERQSSKIIVK
- binding in percent of wild type CagL [1]: < 50%
- binding in percent of wild type CagL [2]: < 50%
- binding in percent of wild type CagL [3]: < 50%
